Holding throughout (test): cell-based or functional assay
The target of assay [1] is T1, human GIP receptor (human) (UniProt P48546).
T1 sequence (looked up): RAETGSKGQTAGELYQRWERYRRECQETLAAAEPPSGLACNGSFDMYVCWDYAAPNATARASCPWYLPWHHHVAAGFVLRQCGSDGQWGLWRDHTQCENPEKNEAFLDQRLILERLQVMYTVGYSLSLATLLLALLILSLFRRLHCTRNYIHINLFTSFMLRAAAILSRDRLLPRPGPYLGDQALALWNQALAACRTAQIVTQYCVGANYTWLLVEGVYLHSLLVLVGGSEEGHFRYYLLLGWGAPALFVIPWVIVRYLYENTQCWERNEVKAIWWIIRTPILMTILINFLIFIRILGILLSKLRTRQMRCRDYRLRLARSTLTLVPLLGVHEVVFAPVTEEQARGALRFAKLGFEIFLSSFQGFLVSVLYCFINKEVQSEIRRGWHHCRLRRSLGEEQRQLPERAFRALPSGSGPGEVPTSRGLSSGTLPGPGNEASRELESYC

Assay [2] deals with hGLP-1R (Homo sapiens, UniProt P43220).
Sequence of hGLP-1R (P43220 24-463): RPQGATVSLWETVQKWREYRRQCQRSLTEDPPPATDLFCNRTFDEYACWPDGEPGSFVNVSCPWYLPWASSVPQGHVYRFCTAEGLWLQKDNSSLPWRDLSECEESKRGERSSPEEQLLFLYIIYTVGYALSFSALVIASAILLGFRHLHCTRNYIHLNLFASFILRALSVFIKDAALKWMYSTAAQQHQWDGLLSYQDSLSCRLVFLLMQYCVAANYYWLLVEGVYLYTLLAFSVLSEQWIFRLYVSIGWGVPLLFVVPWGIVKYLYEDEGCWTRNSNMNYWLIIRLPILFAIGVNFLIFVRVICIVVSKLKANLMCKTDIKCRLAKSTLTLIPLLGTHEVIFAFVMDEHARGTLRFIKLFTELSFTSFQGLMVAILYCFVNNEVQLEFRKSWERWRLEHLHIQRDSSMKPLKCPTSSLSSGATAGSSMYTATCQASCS
In assay [3] the target is human glucagon receptor (human) (UniProt P47871).
Sequence of human glucagon receptor (human) (P47871 26-477): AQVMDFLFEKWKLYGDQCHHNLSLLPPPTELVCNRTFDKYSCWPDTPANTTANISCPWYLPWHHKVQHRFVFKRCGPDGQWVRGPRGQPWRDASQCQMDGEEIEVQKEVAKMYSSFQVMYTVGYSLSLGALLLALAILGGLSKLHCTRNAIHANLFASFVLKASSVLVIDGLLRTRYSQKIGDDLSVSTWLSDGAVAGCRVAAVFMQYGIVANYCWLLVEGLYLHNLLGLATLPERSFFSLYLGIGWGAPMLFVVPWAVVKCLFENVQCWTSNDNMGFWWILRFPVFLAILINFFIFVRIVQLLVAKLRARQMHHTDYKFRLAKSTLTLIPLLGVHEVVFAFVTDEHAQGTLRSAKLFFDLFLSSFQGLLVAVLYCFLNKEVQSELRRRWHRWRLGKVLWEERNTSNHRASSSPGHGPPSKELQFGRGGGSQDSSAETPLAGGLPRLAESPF

The source of these data is patent US20240270821A1, “GIP/GLP1/GCG TRI-RECEPTOR AGONISTS AND USES THEREOF” (priority 2023, published 2024).

B1: Example 1209 (peptide)
chain: YXQGTXTSDXSIXLDXXAQXXFIEXLIEGGPSSGEPPPETE
modifications: synthetic construct; SITE 2: note = 2-Aminoisobutyric Acid; SITE 6: note = alpha-methyl-2-fluoro-L-phenylalanine; SITE 10: note = 3-(4-Pyridyl)-L-alanine; SITE 13: note = alpha-methyl-leucine; SITE 16: note = L-ornithine; SITE 17: note = Ornithine is chemically modified through conjugation of the ep
Consider B1, for which the figures for the Relative cAMP EC50 in assay [1], in assay [2] and in assay [3] were 0.00819 nM, 0.41 nM and 0.97 nM, respectively. The cAMP Rel EC50 (1% HSA) in assay [1] is 0.565 nM; in assay [2], 37.7 nM; in assay [3], 124 nM.

B2: Example 1236 (peptide)
chain: YXQGTXTSDXSIXLDXKAAXAFIEXLLEGGPSSGEPPPS
modifications: synthetic construct; SITE 2: note = 2-Aminoisobutyric Acid; SITE 6: note = alpha-methyl-2-fluoro-L-phenylalanine; SITE 10: note = 3-(4-Pyridyl)-L-alanine; SITE 13: note = alpha-methyl-leucine; SITE 16: note = L-ornithine; SITE 17: note = Lysine is chemically modified through conjugation of the epsil
In the case of B2, the Relative cAMP EC50 in assay [1] amounted to 0.052 nM; in assay [2], 0.304 nM; in assay [3] it was 0.947 nM. Besides, the cAMP Rel EC50 (1% HSA) in assay [1] worked out at 11.9 nM; in assay [2], 95.8 nM; in assay [3], 502 nM.

B3: Example 1198 (peptide)
chain: YXQGTXTSDXXIXLDXKAQXEFIEXLIEGGPPSXXPPPSGSE
modifications: non-natural residues; lysine acylated AEEA-γGlu-C18 diacid; C-terminal amide; synthetic construct; SITE 2: note = 2-Aminoisobutyric Acid; SITE 6: note = alpha-methyl-2-fluoro-L-phenylalanine; SITE 10: note = 3-(4-Pyridyl)-L-alanine; SITE 11: note = alpha-methyl-L-serine; SITE 13: note = alpha-methyl-leucine; SITE 16: note = L-ornithine; SITE 17: note = Lysine is chemically mo
B3: the Relative cAMP EC50 in assay [1] came to 0.00663 nM; in assay [2], 0.475 nM; in assay [3] it was 1.8 nM. Also, the cAMP Rel EC50 (in the presence of 1% HSA) in assay [1] amounted to 0.67 nM; in assay [2], 61 nM; in assay [3] it was 314 nM.

B4: Example 1200 (peptide)
chain: YXQGTXTSDXXIXLDXKAQXEFIEXLIEGGPPSXEPPPSGSE
modifications: non-natural residues, acylated Lys (AEEA-γGlu-C18 diacid), C-terminal amide; synthetic construct; SITE 2: note = 2-Aminoisobutyric Acid; SITE 6: note = alpha-methyl-2-fluoro-L-phenylalanine; SITE 10: note = 3-(4-Pyridyl)-L-alanine; SITE 11: note = alpha-methyl-L-serine; SITE 13: note = alpha-methyl-leucine; SITE 16: note = L-ornithine; SITE 17: note = Lysine is chemically mo
B4: the Relative cAMP EC50 in assay [1] is 0.00883 nM; in assay [2] it was 0.727 nM; in assay [3] it was 1.5 nM. Besides, the results for the cAMP Rel EC50 (in the presence of 1% HSA) in assay [1], in assay [2] and in assay [3] were 0.896 nM, 91.4 nM and 278 nM, respectively.

B5: Example 1233 (peptide)
chain: YXQGTXTSDXXIXLDXQAQXEFIEXLIEGGPSSGAPPPSGSE
modifications: not fully specified; synthetic construct; SITE 2: note = 2-Aminoisobutyric Acid; SITE 6: note = alpha-methyl-2-fluoro-L-phenylalanine; SITE 10: note = 3-(4-Pyridyl)-L-alanine; SITE 11: note = alpha-methyl-L-serine; SITE 13: note = alpha-methyl-leucine; SITE 16: note = L-ornithine; SITE 20: note = 3-(4-Pyridyl)-L-alanine
With B5, the Relative cAMP EC50 in assay [1] amounted to 0.012 nM; in assay [2] it was 1.09 nM; in assay [3] it was 9.48 nM. Besides, the results for the cAMP Rel EC50 (1% HSA) in assay [1], in assay [2] and in assay [3] were 0.00988 nM, 1.06 nM and 9.9 nM, respectively.

B6: Example 1212 (peptide)
chain: YXQGTXTSDXXIXLDXXAQXEFIEXLIEGGPSSGAPPPSGSE
modifications: synthetic construct; SITE 2: note = 2-Aminoisobutyric Acid; SITE 6: note = alpha-methyl-2-fluoro-L-phenylalanine; SITE 10: note = 3-(4-Pyridyl)-L-alanine; SITE 11: note = alpha-methyl-L-serine; SITE 13: note = alpha-methyl-leucine; SITE 16: note = L-ornithine; SITE 17: note = Ornithine is chemically
As for B6, the Relative cAMP EC50 in assay [1] stood at 0.00702 nM; in assay [2] it was 0.357 nM; in assay [3], 1.71 nM. For the same molecule, the values for the cAMP Rel EC50 (1% HSA) in assay [1], in assay [2] and in assay [3] were 0.614 nM, 38.2 nM and 230 nM, respectively.

B7: Example 9 (peptide)
chain: YXQGTFTSDFSKXLDKKAQXAFIEYLLAGGPSSGEPPPGGS
modifications: Aib, αMeL; acylated Lys; C-terminal amide; synthetic construct; SITE 2: note = 2-Aminoisobutyric Acid; SITE 13: note = alpha-methyl-leucine; SITE 17: note = Lysine is chemically modified through conjugation of the epsilon-amino group of the Lysine side chain with (2-[2-(2-Amino-ethoxy)-ethoxy]-acetyl)-(gamma-Glu)-CO-(CH2) 18-CO2H; SITE 20: n
Turning to B7, the Relative cAMP EC50 in assay [1] came out at 0.205 nM; in assay [2] it was 1.61 nM; in assay [3] it was 7.19 nM. The cAMP Rel EC50 (in the presence of 1% HSA) was found to be 41.8 nM in assay [1], 402 nM in assay [2] and 1430 nM in assay [3].

B8: Example 25 (peptide)
chain: YXQGTFTSDFSKXLDKKAQXAFIEYLLAGGPSSGEPPPSEG
modifications: Aib, αMeL, acylated Lys, C-terminal amide; synthetic construct; SITE 2: note = 2-Aminoisobutyric Acid; SITE 13: note = alpha-methyl-leucine; SITE 17: note = Lysine is chemically modified through conjugation of the epsilon-amino group of the Lysine side chain with (2-[2-(2-Amino-ethoxy)-ethoxy]-acetyl)2-(gamma-Glu)-CO-(CH2 )16-CO2H; SITE 20:
On to B8, for which the Relative cAMP EC50 in assay [1] is 0.128 nM; in assay [2] it was 3.34 nM; in assay [3] it was 6.8 nM. Further, the cAMP Rel EC50 (in the presence of 1% HSA) in assay [1] was found to be 19.8 nM; in assay [2], 520 nM; in assay [3], 939 nM.

B9: Example 14 (peptide)
chain: YXQGTFTSDFSKXLDKKAQXAFIEYLLAGGPSSGAPPPSGS
modifications: non-natural residues, acyl lysine, C-terminal amide; synthetic construct; SITE 2: note = 2-Aminoisobutyric Acid; SITE 13: note = alpha-methyl-leucine; SITE 17: note = Lysine is chemically modified through conjugation of the epsilon-amino group of the Lysine side chain with (2-[2-(2-Amino-ethoxy)-ethoxy]-acetyl)-(gamma-Glu)-CO-(CH2) 18-CO2H; SITE 20: n
On to B9, for which the figures for the Relative cAMP EC50 in assay [1], in assay [2] and in assay [3] were 0.17 nM, 1.67 nM and 7.23 nM, respectively. Besides, the cAMP Rel EC50 (in the presence of 1% HSA) amounted to 34.7 nM in assay [1], 232 nM in assay [2] and 1420 nM in assay [3].

B10: Example 27 (peptide)
chain: YXQGTFTSDFSKXLDKKAQXAFIQYLLAGGPSSGEPPPSEG
modifications: Aib, αMeL, acylated Lys, C-terminal amide; synthetic construct; SITE 2: note = 2-Aminoisobutyric Acid; SITE 13: note = alpha-methyl-leucine; SITE 17: note = Lysine is chemically modified through conjugation of the epsilon-amino group of the Lysine side chain with (2-[2-(2-Amino-ethoxy)-ethoxy]-acetyl)-(gamma-Glu)-CO-(CH2) 18-CO2H; SITE 20: n
For the molecule B10, the Relative cAMP EC50 in assay [1] came to 0.41 nM; in assay [2], 2.33 nM; in assay [3], 8.91 nM. Further, the cAMP Rel EC50 (in the presence of 1% HSA) was found to be 72.3 nM in assay [1], 464 nM in assay [2] and 1180 nM in assay [3].

B11: Example 20 (peptide)
chain: YXQGTFTSDFSKXLDKKAQXAFIEWLLAGGPSSGEPPPSEG
modifications: non-natural residues, acyl lysine, C-terminal amide; synthetic construct; SITE 2: note = 2-Aminoisobutyric Acid; SITE 13: note = alpha-methyl-leucine; SITE 17: note = Lysine is chemically modified through conjugation of the epsilon-amino group of the Lysine side chain with (2-[2-(2-Amino-ethoxy)-ethoxy]-acetyl)-(gamma-Glu)-CO-(CH2) 18-CO2H; SITE 20: n
Take B11: the Relative cAMP EC50 in assay [1] came out at 0.381 nM; in assay [2], 2.45 nM; in assay [3], 15.4 nM. The cAMP Rel EC50 (in the presence of 1% HSA) in assay [1] turned out to be 42.3 nM; in assay [2] it was 326 nM; in assay [3], 587 nM.
